Test results published in a protein production outcome set (Wang et al. 2014).

Assay: label from the status in PepcDB records

Q: Which protein production does the source give for “MPMDFQILDADYEVVNDSGPVIRLFGRGADGKSVCCFVPDFEPYFYLKASGDLHAVARLIKDTFEQVKKVEIVEKFEPVGYQKTKKEMLRVTTRLPKDVPEIRDEILKIRDVLRAEGDWQVYESDILFRNRFLIDRALGGMVWVSAEGKPVDPVRYLGAGSAWRSRCENFACDSAVLASGLKRVENLAIAPLKYLAFDIECLPLDGGMPSPDVSPIIMISFSFEPEYKGHKTLILLAKPAAGMDGDVLSCMDETEMLNKFFEIICEYDPDIVAGYNHQDFDIPYITERVKALVAKGETINSVVGRDGSPIGYRKFGLITRTEMKGRVVVDALPLVRRAFSLKQYTLRAVSKELLSREKLDVPPLEMEEHWNDSGDKFRKFVDYARRDSELALELVLELRLLDKYIALAQVSGSLLQEIVDGGQTSMVETLLLREFGLKDRVILPKPGDELSAERYDMSSDLKGGEVLEPKKGLLENVLILDYKSLYPTIMMAHNLCYTTVVTRDRPDGKTIKPPSGGEFVPPEVFRGIVPSILEDLLNKRGDTKKRMKRTSDENEHRVLDATQLAIKILLNSFYGYSGYARARLYSLTLANAVTSFGRSNILNTRDLINGRIGKIVLRNSAALLLEEAGKLSPQDRIVELSVAYGDTDSVFVHCKAKGDLSLEEVSLVGNRLSEIVSASLPDPMELEFESVAKRALLIAKKRYALWLFEPRNSGWENKIKVKGMETVRRDWCELTSITLNRVLEFVLIEGDVDKAVEHVRKVVSDVRNLDPGKDAGIIEKLVLTRTLTRKADSYKNKQPHLTVAENLKKRTGIMPSIGTRIPFVITAGKGLFVDRAEDPDYVRENNVPIDVDYYVKKQILPPVERILEVFGVKMSSLDFDAKQKGLFDFEVKKPEAKKQEKSSSQKGTNGKILEKAPEEKARYSENGRVEQRSLFDF” here?
A: failed

Q: With “MPMKSWIKTLLITLLAAALCLLFARVVLPPLLVQLIPPSWEGGPWFWVNLLLAGFLAGLVVAPLLRTRRYYPVPLLLLLSVLVVVGNWAQNRCNDAQLQAIEQLERRSASHSNLGISNEEPAPSAPVDVSATPGVWAHEQGDGYGYSCNRPGETQGFLMPQLMSFGINVLGLLLALLIGPGRRRAR” as the sequence, how does the protein production read?
A: failed

Q: With “MPNANEDNPSALSQVQRRAVSELLRVSPVADELARRFQEAGFSLALVGGSVRDALLGRLGNDLDFTTDARPEDVLKIVRPWADAMWEVGIAFGTVGAQKEGYQIEVTTYRSEAYDRTSRKPEVSYGDSIEEDLVRRDFTVNAMAVALPEKEFIDPHGGLDDLAARILRTPGTPEESFSDDPLRMMRAARFAAQLDFEVAPDVVTAMTEMAGRIDIVSAERVRDELNKLVLSAHPRKGLTLLVDTGLADHVLPELPALRLERDEHHRHKDVYDHSLIVLEQAIALEENGPDLTLRLAALLHDIGKPRTRRFEKDGRVSFHHHEVVGAKMTKKRMTALKYSNDLVKDVSRLVELHLRFHGYGTGEWTDSAVRRYVRDAGPLLDRLHKLTRSDCTTRNKRRAAALSRAYDGLEERIAQLQEQEELDAIRPDLDGNQIMEVLGVGPGPVIGQAYKFLLELRLENGPMEYDAAVAALKEWWAEQN” as the sequence, how does the protein production read?
A: failed

Q: With “MPNELSRSLSPYLLMHANDPVEWRMWSKETLRIATEENRLIFLSIGYSSCHWCHVMHEESFVDPDVAEILNNNYIPVKVDREERPDLDSYFMKVSQVINGNGGWPLNIILLPDARPVFAMTYVPKEDRNGMTGLKTILIQLSQMYLKDPDQFKDQAKAVSDAMEERESV” as the sequence, how does the protein production read?
A: not failed

Q: With “MPNGPTCAARRARARSALVGGEGFRMEWSGKRVSDGSATRPTVAAWVSGGFGSGESVAAFKALATEAEAGDASAQRRLGLCFRDGLGTDRDIHRAKAWYQRSAAQNDPMAALELGLMLESGLGISSDHGEAGKWYRVALDLWRDRAEGGDALGQFVLGLCHEVGAGVPAAHREALKWYGRSAERGCAHAQWALGRLHEDGLGVVRDYSEAVRCYRAAAFQGHARACFNLGLMAELGLGMVRDADCSASWYGKALEVWRRWAELGDPAAATALAAMYEAGHGVAKDYAVAVCWYRRAARQGNPLAQFELGRLSMEGRGVERNDVEAVGWFRLAAERGHADAQFHLGLMHEHGRGVTRRFEEAFRWYDKAADEGPARRWDAFHRLVPAAGEVPEGCGLGAW” as the sequence, how does the protein production read?
A: failed

Q: Which protein production does the source give for “MPNHQPVKKFKIIGGACKGLGLNLPNISSTRPTKAIVRESFFNTLQAEINGAHFIEVFSGSASMGLEALSRGAKSAVFFEQNKSAYKTLLENISLFKNRLKKEMEIQTFLDDAFKLLPTLCLKNGVLNIIYLDPPFETSGFLGIYEKCFQALERLLKRFNPKNLLVVFEHESMHEMPKSLVTLAIIKQKKFGKTTLTYFQ” here?
A: failed

Q: Which protein production does the source give for “MPNLSCGVDNCAYNQNDMCSLNSIKVNGSFANHSEATCCGSFVEKGGFTNAAVDMGPAEPATSVACEAEKCCYNKNCKCHAESIDISGDYAQHQDNTECSTFRQELEHHHHHH” here?
A: not failed

Q: With “MPNNVKITSSHRVLMIALLAAAFACYLLVEPYINSIVMAFIISLLMFPVHEWFERKMPKHKNSASLLTCVVLTFIIVIPLLFVFAAIVQQGSVFSQNTYKWVTNGGIQDIFQHPWVIKGLSIVNEYLPFDKIEPKAIAEKIGQFATTFGSNLVAISAKILGDATNFLMDFFLMLFVLFFLLRDHDKIISAIRHILPLSRSQEDRILTEIEQVSKSAVMGSFLTAIAQGLAGGIGMWLAGFPGLFWGTMMGFASFIPVVGTALIWIPAAAYLFLTGDMTWAIFLTAWSVVIVGSIDNLLRPLLMQGSAGMNTLMIFFSLLGGLHLFGLIGLIYGPLIFAVTMVLFNIYEEEFKDFLNQQDNS” as the sequence, how does the protein production read?
A: failed

Q: Which protein production does the source give for “MPNQSNESRPFHKDLESILYAHVPLPMFTMDEEGALLNMNEGAMETLRVDWEQNQRSSVFQLFESECRESLYLALATVNKISQVEKVELIKRNGETFETFCLSLQLLPDKQVIAFIAPLIDKGMDPLTGVPIRQEVPRLMERTFQENQAETYVLFLINLDRFKLVNDSLGEGYGDQVLQTLVRRLLWQLPNQQWIARVSGDEFIACAAIKGELPKKETLATYISSIIQQPFQVDEVQFTMTASIGAAVYPMDGKSVEMIWNSLERALRHAKARGGNCVSWFCQELKDEWIHPFRLENDLRRAVENQELELYFQPIFETTTGEHCGEEVLVRWNHPALGVLGPNFFIPVAEEIGLIGVVGKWVLDEACKQKALLIEKEASSVPMSVNLSLRQFLQPDIVDMILDSLNKYGLDPSLLEVEVTERITIDMNRAMKVLQKLRAQGIRVSLDDFGTGYSSLQYISQLPIQKLKIDKSFIAEIGVNSQVEAIISMIIHLGHELDLTVVAEGVETEKQLSFLKEKKCDTVQGYYHAKPLTFSEFKKYLLS” here?
A: failed

Q: For “MPPGTTLQGGKYRLEQVLGQGGFGITYLGSQTQLGARVAIKELFPSGSTRQSGQYVLPPAGTDPAGWAQAKQDFTAEGRTVARFNHPDIVRVMDLFEENGTAYLVMEFLEGQTLGSAIEKRGPLPPDEVVNIAKRVLGALSVVHSAGMLHRDIKPDNIYLDKAGRTVLIDFGSARTFAAGQTVSHTRLVTPGYAPLEQYSGSAKFGPYTDIYALGATLYHALTGHPPTPATDRTMGTPLAPLPPNTPPALREAIERSLAIKINERPQSTQEVLALLNQVSVAPQSAPAAPAPRPTPPQRNQTFPPAPQPTPQRQPQRPPQPVPQPPAQRRRGPGCGCLFPLLLLGGLALYGMNVLGPLLSPSQTETTTTSEQTQPEPPAQTPTTPTEDPTIPQAPGTTDSGQDWQSGDSIDLGLPGSNGETPAQTDNTATPETTTQGNAGTETNPTTTPETNTSTAPTSGELVVTAPNVTLRSAADAAANSLGTLAAGSTVQILQTQDGWYEVQTTSGQRGWVGTDAALPPVSAEALKALQTAAGQGGDVQLSPGVYRLQEPLVLSQDAHLTGAGRDRTWITSAAGNAVLTTRGNVSLQGVTVGWTGQTPGGALLAEGGTVTLRDARLTGGVRDETRNESGSGLQLSQGAQGDVQGSDLVGNAYGASVSDTAQLKLKDSTLSDNSLGGAIFLDSSGGEVRGSTLERNGGDGLTVRHTAAPVIVDSELRDNGERGLSVEGQAKPTVKRVTASGNTLQGIGVQDDAQPQLSNNKLTGNGQEGLTYADRAGGRASENELSGNQVGIAVQGSAAPELRTNIIRDSRDAGLSYAGQAGGTARGNTITGSAKPGISLWGEAQPTLSSNVIQGGAQSGIVFAEHAGGTLDSNEVLGNALSGLVVRDTAAPEVRGNTFQDNGKAAMVYEGEAGGRVSGNTCQGNGSDVIELHLTSVLAGPDLSGASCAVQTQGNW”, which protein production is on record?
A: failed

Q: Which protein production does the source give for “MPPGVAVCFSSLFIRLVCMAFLTSSDKALWHLALPMIFSNITVPLLGLVDTAVIGHLDSPVYLGGVAVGATATSFLFMLLLFLRMSTTGLTAQAYGAKNPQALARTLVQPLLLALGAGALIALLRTPIIDLALHIVGGSEAVLEQARRFLEIRWLSAPASLANLVLLGWLLGVQYARAPVILLVVGNILNIVLDVWLVMGLHMNVQGAALATVIAEYATLLIGLLMVRKILKLRGISGEMLKTAWRGNFRRLLALNRDIMLRSLLLQLCFGAITVLGARLGSDIIAVNAVLMTLLTFTAYALDGFAYAVEAHSGQAYGARDGSQLLDVWRAACRQSGIVALLFSVVYLLAGEHIIALLTSLTQIQQLADRYLIWQVILPVVGVWCYLLDGMFIGATRATEMRNSMAVAAAGFALTLLTLPWLGNHALWLALTVFLALRGLSLAAIWRRHWRNGTWFAAT” here?
A: failed

Q: For “MPPPIHPSSSAAPGPVPNHLIWAIVSTVLGFCLCCPALISGIVAIVFSSKVNGLLNQGDIDGARRASNTAKTWCIVTSVLAAIGLLINIGMVATGGMQGYMDYMQQLQHMQ”, which protein production is on record?
A: failed

Q: With “MPPPLPYDAMRSVWTDTAAPAMATAPLAGHADCDVAIVGAGITGLSAALHLAERGLRACVLEARDPGWGASGRNGGQVIPGIKHDPDEILARHGRERGEPLLHMVGTAADTVFDLIDRYGLDLVQAQIRLAAGERLDRVVPADLQPSGHAIELRVYAEDPVRFIPSPGTLAVFELPQGPGVRTETGYHAGNAVSPHYDPMIAKIIVHGADRAQAIARAEQALADTEIAGVKTNLPFLARALAFEPWRQGRLHTGIVARTLAEPAPAALTALEHHHHHH” as the sequence, how does the protein production read?
A: failed

Q: With “MPPQRRRRPEPEAPAPGRRGRRPEKKKSRGKRVLLWTGGSMAFVVLVAGVGGYVYLKHLEGNVSTTDVGTAGSSSFKKDEAFNILIIGTDKRTGEGNEGYGDKGSAGHADTNILLHVAEDRSNATALSIPRDLIVDIPDCETTQEDGTKKVIPGTSGVRFNQSLGDFGRDAGCTMRTVAETTGIKPDHFMMADFNAVKTLTTAVDGVDVCVEHAVDDPKSHLKLPAGESKVEGEQALAFVRTRHAFGNEGDLDRIKVQQQFLGSLMRKMASGDTLTSPTKLVKLAEAATKALTVDSAIGKVGTLKDIALELKKVPTKNITFTTVPVIDNPAEKVKATVVVNEAKGPQVFDMIKNDISFTEVEQQKKKEKAAVAARLKGEKSEPGEVRVRVMNGGAPAGSAQQELAYLQTQAGVSKSENAGNAPADIAKTTLEYAPDQADQARALAEILGLTGAAMKPGESVTNSQGLPTMTLTLGKDFKGAGVKLDGSVKKPDLDTESTADQKLCAS” as the sequence, how does the protein production read?
A: failed

Q: Which protein production does the source give for “MPPRIEDILPHRGSMLLLAHVDTWDDETLRASAHVDPTAWYADPEGAMPAWFGIELMAQAIAAHVGLLSMREGNPARPGVLLGSRKYEAHAPAFAPAQPLSIAVQEVLRSTEGHGAYACTIAAGGRDLAQAVIKVYQPTDFQAFIEGLEHHHHHH” here?
A: failed
